Measured values: article PMC9482650, “Quantitative fragmentomics allow affinity mapping of interactomes” (Nature Communications, 2022)

How the values were obtained:
Experiment in all cases: holdup assay
Set-up in all cases: key: below the threshold = too weak to quantify, mostly under pKd 3.1 to 4
Inadl_7, Q8NI35 = target: Inadl_7, Q8NI35
MAGI3_6, Q5TCQ9 = target: MAGI3_6, Q5TCQ9
CNKSR1, Q969H4 = target: T1, CNKSR1, Q969H4; conditions: plain residues with an end cap or a label only (N-terminal biotin on a linker: (peg)3)
T1 sequence (Q969H4 191-295, limits assumed, looked up): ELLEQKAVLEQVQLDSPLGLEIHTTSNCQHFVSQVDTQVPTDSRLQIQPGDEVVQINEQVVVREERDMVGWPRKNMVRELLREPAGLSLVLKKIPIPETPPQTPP

PREX1_1, Q8TCU6 = target: PREX1_1, Q8TCU6
PREX1_1, Q8TCU6, sequence (Q8TCU6 608-718): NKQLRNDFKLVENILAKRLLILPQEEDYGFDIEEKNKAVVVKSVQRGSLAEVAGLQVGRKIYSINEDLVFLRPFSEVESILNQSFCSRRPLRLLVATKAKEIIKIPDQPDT

MPDZ_3, O75970 = target: T2, MPDZ_3, O75970
T2 sequence (O75970 372-473, limits assumed, looked up): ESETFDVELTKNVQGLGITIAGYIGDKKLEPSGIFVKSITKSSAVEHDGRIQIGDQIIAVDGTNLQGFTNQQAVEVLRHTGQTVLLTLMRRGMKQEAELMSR

PTPN13_2, Q12923 = target: PTPN13_2, Q12923
PTPN13_2, Q12923, sequence (Q12923 1363-1462): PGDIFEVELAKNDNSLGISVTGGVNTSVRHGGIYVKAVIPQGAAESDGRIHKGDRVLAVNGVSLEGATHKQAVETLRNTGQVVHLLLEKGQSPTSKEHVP

TJP3_2, O95049 = target: T3, TJP3_2, O95049
T3 sequence (O95049 190-282, limits assumed, looked up): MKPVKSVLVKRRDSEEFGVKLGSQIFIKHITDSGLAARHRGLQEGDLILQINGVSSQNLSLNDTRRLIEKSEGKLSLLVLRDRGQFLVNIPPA

LIMK1, P53667 = target: LIMK1, P53667
LIMK1, P53667, sequence (P53667 155-268): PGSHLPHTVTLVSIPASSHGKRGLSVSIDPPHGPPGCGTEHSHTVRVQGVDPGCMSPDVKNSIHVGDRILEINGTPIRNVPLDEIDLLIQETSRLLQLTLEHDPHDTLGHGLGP

PDZD7_2, Q9H5P4 = target: T4, PDZD7_2, Q9H5P4; conditions: plain residues with an end cap or a label only (N-terminal biotin on a linker: (peg)3)
T4 sequence (Q9H5P4 205-303, limits assumed, looked up): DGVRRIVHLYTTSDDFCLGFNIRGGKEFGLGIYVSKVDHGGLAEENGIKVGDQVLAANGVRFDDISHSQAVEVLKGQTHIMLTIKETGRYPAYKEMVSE

USH1C_1, Q9Y6N9 = target: T5, USH1C_1, Q9Y6N9
T5 sequence (Q9Y6N9 82-179, limits assumed, looked up): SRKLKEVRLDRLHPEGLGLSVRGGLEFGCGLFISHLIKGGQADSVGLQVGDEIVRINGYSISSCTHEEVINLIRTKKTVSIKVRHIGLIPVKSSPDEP

SNTB2, Q13425 = target: T6, SNTB2, Q13425; conditions: plain residues with an end cap or a label only (N-terminal biotin on a linker: (peg)3)
T6 sequence (Q13425 110-208, limits assumed, looked up): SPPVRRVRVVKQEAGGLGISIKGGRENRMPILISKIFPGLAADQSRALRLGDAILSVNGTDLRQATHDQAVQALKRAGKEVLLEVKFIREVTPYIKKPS

GORASP1, Q9BQQ3 = target: GORASP1, Q9BQQ3
GORASP1, Q9BQQ3, sequence (Q9BQQ3 1-208): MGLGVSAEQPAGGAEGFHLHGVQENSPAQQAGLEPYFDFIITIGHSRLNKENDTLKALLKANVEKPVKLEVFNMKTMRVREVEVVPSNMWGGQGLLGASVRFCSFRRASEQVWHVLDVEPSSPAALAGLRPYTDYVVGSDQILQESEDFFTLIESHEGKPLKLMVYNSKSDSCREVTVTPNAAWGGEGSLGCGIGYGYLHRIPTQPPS

PDZD11, Q5EBL8 = target: T7, PDZD11, Q5EBL8
T7 sequence (Q5EBL8 42-139, limits assumed, looked up): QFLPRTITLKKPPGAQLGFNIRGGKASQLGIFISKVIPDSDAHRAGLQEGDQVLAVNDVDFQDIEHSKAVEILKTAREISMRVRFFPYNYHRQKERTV

MAGI1_6, Q96QZ7 = target: MAGI1_6, Q96QZ7
MAGI1_6, Q96QZ7, sequence (Q96QZ7 1146-1238): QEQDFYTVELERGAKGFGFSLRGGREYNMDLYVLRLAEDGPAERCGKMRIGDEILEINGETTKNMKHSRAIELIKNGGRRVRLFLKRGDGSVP

CARD14, Q9BXL6 = conditions: plain residues with an end cap or a label only (N-terminal biotin on a linker: (peg)3)
CARD14, Q9BXL6, sequence (Q9BXL6 558-663): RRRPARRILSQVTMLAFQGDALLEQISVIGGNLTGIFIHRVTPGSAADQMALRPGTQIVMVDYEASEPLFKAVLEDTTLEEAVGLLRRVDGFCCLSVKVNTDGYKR

RGS3, P49796-9 = target: RGS3, P49796-9
RGS3, P49796-9, sequence (P49796 other isoform, or with tags, fused parts or gaps): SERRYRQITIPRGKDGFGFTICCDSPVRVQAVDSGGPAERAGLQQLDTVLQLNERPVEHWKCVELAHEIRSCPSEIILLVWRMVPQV

MAGI1_3, Q96QZ7 = target: MAGI1_3, Q96QZ7
MAGI1_3, Q96QZ7, sequence (Q96QZ7 638-725): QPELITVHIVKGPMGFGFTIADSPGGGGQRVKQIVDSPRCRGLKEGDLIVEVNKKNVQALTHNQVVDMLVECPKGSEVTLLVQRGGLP

SYNJ2BP, P57105 = target: T8, SYNJ2BP, P57105
T8 sequence (P57105 8-110, limits assumed, looked up): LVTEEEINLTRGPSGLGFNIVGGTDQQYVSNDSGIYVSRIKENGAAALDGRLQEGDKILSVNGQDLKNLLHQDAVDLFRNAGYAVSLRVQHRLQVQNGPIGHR

SYNPO2L, Q9H987 = target: T9, SYNPO2L, Q9H987
T9 sequence (Q9H987 1-98, limits assumed, looked up): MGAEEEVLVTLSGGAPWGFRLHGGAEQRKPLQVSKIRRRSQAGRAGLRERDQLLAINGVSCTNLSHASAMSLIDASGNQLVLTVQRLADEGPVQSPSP

PARD6G, Q9BYG4 = target: T10, PARD6G, Q9BYG4; conditions: plain residues with an end cap or a label only (N-terminal biotin on a linker: (peg)3)
T10 sequence (Q9BYG4 153-261, limits assumed, looked up): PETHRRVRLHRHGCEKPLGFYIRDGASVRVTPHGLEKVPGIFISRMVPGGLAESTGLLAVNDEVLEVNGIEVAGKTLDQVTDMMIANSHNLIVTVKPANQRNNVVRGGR

PDZD2_6, O15018 = target: T11, PDZD2_6, O15018
T11 sequence (O15018 2745-2839, limits assumed, looked up): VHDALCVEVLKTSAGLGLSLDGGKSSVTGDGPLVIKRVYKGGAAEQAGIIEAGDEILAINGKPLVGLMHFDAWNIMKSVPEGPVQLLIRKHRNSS

LNX2_4, Q8N448 = target: T12, LNX2_4, Q8N448
T12 sequence (Q8N448 595-690, limits assumed, looked up): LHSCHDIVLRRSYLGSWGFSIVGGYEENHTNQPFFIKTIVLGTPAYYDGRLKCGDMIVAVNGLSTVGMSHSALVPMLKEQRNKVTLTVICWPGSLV

PDZD2_5, O15018 = target: T13, PDZD2_5, O15018
T13 sequence (O15018 2617-2716, limits assumed, looked up): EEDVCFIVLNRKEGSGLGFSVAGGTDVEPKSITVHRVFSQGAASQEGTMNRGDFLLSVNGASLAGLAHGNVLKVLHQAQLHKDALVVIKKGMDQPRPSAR

[1] = plain residues with an end cap or a label only (N-terminal biotin on a linker: (peg)3)
[2] = modified: phospho on T at position -2 from the C-terminal residue
[3] = plain residues with an end cap or a label only (N-terminal biotin on a linker: ahx)
[4] = plain residues with an end cap or a label only (N-terminal biotin on a linker: ado-ado)

Inadl_7, Q8NI35, sequence (Q8NI35 1219-1332): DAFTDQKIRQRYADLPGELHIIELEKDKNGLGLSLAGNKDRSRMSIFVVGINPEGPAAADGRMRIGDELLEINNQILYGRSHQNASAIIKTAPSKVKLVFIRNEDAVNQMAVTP
MAGI3_6, Q5TCQ9, sequence (Q5TCQ9 1014-1103): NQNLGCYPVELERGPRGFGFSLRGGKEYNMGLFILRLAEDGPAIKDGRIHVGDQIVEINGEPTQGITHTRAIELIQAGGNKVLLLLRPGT

## RRRRSQSRESQC [HBV-HBc, P03193]
Inadl_7, Q8NI35; [1]
  pKd: below the threshold
MAGI3_6, Q5TCQ9; [1]
  pKd: below the threshold
CNKSR1, Q969H4
  pKd: 3.9
PREX1_1, Q8TCU6; [1]
  pKd: below the threshold
MPDZ_3, O75970; [1]
  pKd: below the threshold
PTPN13_2, Q12923; [1]
  pKd: 3.99
TJP3_2, O95049; [1]
  pKd: below the threshold
LIMK1, P53667; [1]
  pKd: below the threshold
PDZD7_2, Q9H5P4
  pKd: below the threshold
USH1C_1, Q9Y6N9; [1]
  pKd: below the threshold
SNTB2, Q13425
  pKd: 4.58
GORASP1, Q9BQQ3; [1]
  pKd: below the threshold
PDZD11, Q5EBL8; [1]
  pKd: below the threshold
MAGI1_6, Q96QZ7; [1]
  pKd: below the threshold
CARD14, Q9BXL6
  pKd: below the threshold
RGS3, P49796-9; [1]
  pKd: below the threshold
MAGI1_3, Q96QZ7; [1]
  pKd: below the threshold
SYNJ2BP, P57105; [1]
  pKd: 4.59
SYNPO2L, Q9H987; [1]
  pKd: below the threshold
PARD6G, Q9BYG4
  pKd: below the threshold
PDZD2_6, O15018; [1]
  pKd: below the threshold
LNX2_4, Q8N448; [1]
  pKd: 3.9

## RYEDTTLVEDTVL [WNV-NS5, Q9Q6P4]
Inadl_7, Q8NI35; [1]
  pKd: below the threshold
MAGI3_6, Q5TCQ9; [1]
  pKd: below the threshold
CNKSR1, Q969H4
  pKd: below the threshold
PREX1_1, Q8TCU6; [1]
  pKd: below the threshold
MPDZ_3, O75970; [1]
  pKd: below the threshold
PDZD2_5, O15018; [1]
  pKd: below the threshold
PTPN13_2, Q12923; [1]
  pKd: below the threshold
TJP3_2, O95049; [1]
  pKd: 4.25
LIMK1, P53667; [1]
  pKd: below the threshold
PDZD7_2, Q9H5P4
  pKd: below the threshold
USH1C_1, Q9Y6N9; [1]
  pKd: below the threshold
SNTB2, Q13425
  pKd: below the threshold
GORASP1, Q9BQQ3; [1]
  pKd: 3.77
PDZD11, Q5EBL8; [1]
  pKd: below the threshold
MAGI1_6, Q96QZ7; [1]
  pKd: below the threshold
CARD14, Q9BXL6
  pKd: below the threshold
RGS3, P49796-9; [1]
  pKd: below the threshold
MAGI1_3, Q96QZ7; [1]
  pKd: below the threshold
SYNJ2BP, P57105; [1]
  pKd: 3.66
SYNPO2L, Q9H987; [1]
  pKd: below the threshold
PARD6G, Q9BYG4
  pKd: below the threshold
PDZD2_6, O15018; [1]
  pKd: below the threshold
LNX2_4, Q8N448; [1]
  pKd: below the threshold

## SSRTRRETQL [HPV16-E6_-2P, P03126]
Inadl_7, Q8NI35; [2]
  pKd: below the threshold
MAGI3_6, Q5TCQ9; [2]
  pKd: below the threshold
PREX1_1, Q8TCU6; [2]
  pKd: below the threshold
MPDZ_3, O75970; [2]
  pKd: below the threshold
PDZD2_5, O15018; [2]
  pKd: below the threshold
PTPN13_2, Q12923; [2]
  pKd: below the threshold
TJP3_2, O95049; [2]
  pKd: below the threshold
LIMK1, P53667; [2]
  pKd: below the threshold
USH1C_1, Q9Y6N9; [2]
  pKd: below the threshold
GORASP1, Q9BQQ3; [2]
  pKd: below the threshold
PDZD11, Q5EBL8; [2]
  pKd: below the threshold
MAGI1_6, Q96QZ7; [2]
  pKd: below the threshold
RGS3, P49796-9; [2]
  pKd: below the threshold
MAGI1_3, Q96QZ7; [2]
  pKd: below the threshold
SYNJ2BP, P57105; [2]
  pKd: below the threshold
SYNPO2L, Q9H987; [2]
  pKd: below the threshold
PDZD2_6, O15018; [2]
  pKd: below the threshold
LNX2_4, Q8N448; [2]
  pKd: below the threshold

## APSRKLNTEI [TIAM1, Q13009]
GORASP1, Q9BQQ3; [3]
  pKd: below the threshold
SYNJ2BP, P57105; [3]
  pKd: below the threshold

## TESNLQTSSC [CGN, Q9P2M7]
GORASP1, Q9BQQ3; [3]
  pKd: below the threshold
SYNJ2BP, P57105; [3]
  pKd: below the threshold

## RSSGGDDFWF [KCNV1, Q6PIU1]
GORASP1, Q9BQQ3; [4]
  pKd: below the threshold
SYNJ2BP, P57105; [4]
  pKd: below the threshold

## GTGYDRKDYV [CLDN3, O15551]
GORASP1, Q9BQQ3; [4]
  pKd: below the threshold
SYNJ2BP, P57105; [4]
  pKd: below the threshold

## RDPPAEWTRV [PTPN18, Q99952]
GORASP1, Q9BQQ3; [4]
  pKd: 4.07
SYNJ2BP, P57105; [4]
  pKd: below the threshold

## VLYPREGTEV [FOXI1, Q12951]
GORASP1, Q9BQQ3; [4]
  pKd: below the threshold
SYNJ2BP, P57105; [4]
  pKd: 5.23

## MHIQEKGFHV [EPHA6, Q9UF33]
GORASP1, Q9BQQ3; [4]
  pKd: below the threshold
SYNJ2BP, P57105; [4]
  pKd: below the threshold

## EKQAKGDTEF [CACYBP, Q9HB71]
GORASP1, Q9BQQ3; [3]
  pKd: below the threshold
SYNJ2BP, P57105; [3]
  pKd: below the threshold

## SLNANEVEWF [RNF130, Q86XS8]
GORASP1, Q9BQQ3; [4]
  pKd: 4.08
SYNJ2BP, P57105; [4]
  pKd: below the threshold

## TRKRSGEAAV [PFKM, P08237]
GORASP1, Q9BQQ3; [4]
  pKd: below the threshold
SYNJ2BP, P57105; [4]
  pKd: 4.06

## KPGKGSETVV [FZD4, Q9ULV1]
GORASP1, Q9BQQ3; [4]
  pKd: 3.78
SYNJ2BP, P57105; [4]
  pKd: 4.3

## AAVENKVTDL [PLXNB1, O43157]
GORASP1, Q9BQQ3; [4]
  pKd: below the threshold
SYNJ2BP, P57105; [4]
  pKd: below the threshold

## PYPTADHMLA [JUP, P14923]
GORASP1, Q9BQQ3; [4]
  pKd: below the threshold
SYNJ2BP, P57105; [4]
  pKd: below the threshold

## TGLWKHETTV [ADGRA3, Q8IWK6]
GORASP1, Q9BQQ3; [4]
  pKd: below the threshold
SYNJ2BP, P57105; [4]
  pKd: 5.19

## QKAPTKEFYA [SDC2, P34741]
GORASP1, Q9BQQ3; [4]
  pKd: 3.51
SYNJ2BP, P57105; [4]
  pKd: below the threshold

## EKCGKEFSEF [PRKACA, P17612]
GORASP1, Q9BQQ3; [4]
  pKd: below the threshold
SYNJ2BP, P57105; [4]
  pKd: below the threshold

## QLSFNTDTLC [ABCA2, Q9BZC7]
GORASP1, Q9BQQ3; [4]
  pKd: below the threshold
SYNJ2BP, P57105; [4]
  pKd: 3.58

## EDLEDEWEVI [TECPR2, O15040]
GORASP1, Q9BQQ3; [4]
  pKd: 4.12
SYNJ2BP, P57105; [4]
  pKd: below the threshold
